Assay results from patent US20150351390A1, “COMPOSITIONS AND METHODS FOR AUXIN-ANALOG CONJUGATION” (PIONEER HI-BRED INTERNATIONAL, INC., priority 2012, published 2015).

B1: VvGH3-1: GH3 protein, accession XP_002271252 (protein, listed as Vitis vinifera)
chain: MAVDPILSSPLGPAASEKDAKALQFIEEMTRNADSVQERVLAEILSRNGETEYLKRFKLEGSTVRETFKSKIPVIKYEDLQPEIQRIANGDRSAILSAHPISEFLTSSGTSAGERKLMPTIQEELDRRQMLYSLLMPVMNLYVPGLDKGKGLYFLFVKSETRTPGGLLARPVLTSYYKSEHFKTRPYDPYNVYTSPNEAILCADSFQSMYTQMLCGIYERKQVLRLGAVFASGLLRAIRFLQLNWHQLTHDIRTGTLSPKITDPSVRNCVAGVLKPDPELADLVAGECSKDNWEGIITRIWPNTKYLDVIVTGAMAQYIPTLDYYSGGLPLACTMYASSECYFGLNLNPMSKPSEVSYTIMPNMAYFEFLPHEHSSIPLSRDSPPRLVDLAHVEVGKEYELVITTYAGLYRYRVGDILRVTGFHNSAPQFHFVRRKNVLLSIDSDKTDEAELQKAVDNASKLLREVNTSVVEYTSFADTKTIPGHYVIYWELLVKDSANSPSDELLGQCCLAMEESLNSVYRQGRVADNSIGPLEIRVVKSGTFEELMDYAISRGASINQYKVPRCVNFTPIMELLDSRVVSSHFSPALPHWTPARRR
B2: VvGH3-2: GH3 protein, accession XP_002283886 (protein, listed as Vitis vinifera)
chain: MAVDSGLSSPLGPPACEKDAKALQFIEEMTRNPDQVQEKILAEILSQNGETEYLQRFKLAGATDRDTFKSKVPVVTYEDLQPDIQRIANGDRSPILSSHPISEFLTSSGTSAGERKLMPTIHEEWDRRQKLYSLLMPVMNLYVPGLDKGKGLYFLFVKSETKTPSGLVARPVLTGYYRSEHFKKRPYDPYNVYTSPDEAILCVDSFQSMYAQMLCGLLMHKEVLRVGAVFASGLLRAIRFLQVHWQQLAHDISTGILNPKITDPSVREGLAGILKPSQELADFIIQECSGGNWERIITRIWPNTKYLDVIVTGAMAQYIPTLDYFSGGIPLACTMYASSECYFGLNLKPMSKPSEVSYTIMPNMGYFEFLPHDPSAPPLSRDSPPRLVDLADVEVGKEYELVITTYAGLCRYRVGDILQVTGFHNSAPQFQFIRRKNVLLSIDSDKTDEAELQKAVENASLLLREFNTSVVEYTSFADTKTIPGHYVIYWELLVKDPSNSPTDTVLKQCCLAMEESLNTVYRQGRVADNSIGPLEIRVVKSGTFEELMDYAISRGASINQYKVPRCVNFTPIMELLDSRVLSTYFSPAAPHWTPERRRTD
B3: PtGH3-5: GH3 protein, accession EEE97566 (protein, listed as Populus trichocarpa)
chain: MPEAPKNTLKPSDYNLAEKNKKSLQFIEDVTSNADEAQKKVLEEILSRNAHVEYLQRHGLNGQTNRETFKKVMPVINYEDIQPDINRIANGDASPILCSKPISEFLTSSGTSGGERKLMPTIVEELGRRSLLYSLLMPVMSQFVPDLEKGKGMYFLFIKSEAKTPGGLVARPVLTSYYKSTHFKDRPYDPYTNYTSPNETILCPDSYQSMYSQMLCGLCQHKEVLRVGAVFASGFIRAIRFLEKYWKFLANDIRTGIIDPQITDPSIREAVMKILKPDAKLADFIEAECSKESWQGIITRLWPNTKYVDVIVTGTMSQYIPTLDYYSNGLPLVCTMYASSECYFGVNLNPICKPSEVSYTLIPTMAYFEFLPVNRNNGGINSVSRPKSLKEKEQQELVDLVDVKLDQEYELVVTTYAGLYRYRVGDVLRVVGFKNKAPQFSFICRKNVVLSIDSDKTDEVELQSAVKNAVNHLIPFDATLAEYTSYADTTTIPGHYVLFWELSLSGSTPIPPSVFEDCCLTIEESLNSVYRQGRVSDKSIGPLEIKIVEPGTFDKLMDYAISLGASINQYKTPRCVKFAPIVELLNSRAVSRYFSPKCPKWVPGHKQWNKN
B4: ThBAJ34606: GH3 protein, accession BAJ34606 (protein, listed as Thellungiella halophila)
chain: MPEAPKNESLEIFDLTLDEKNKRKLQLIEELTSNADQVQRRVLEEILTRNADVEYLRRHDLDGRTDRETFKNVMPVITYEDIQPEINRIANGDKSHILSIKPISEFLTSSGTSGGERKLMPTIEEELDRRSLLYSLLMPVMSQFVPGLDKGKGMYFLFIKSESKTPGGLPARPVLTSYYKSSHFKERPFDPYTNYTSPNETILCPDSYQSMYSQMLCGLCQHQEVLRVGAVFASGFIRAIKFLEKHWTELVCDIRTGVLSSLITDPSVREAVAKILKPNPKLADFVESECKKKSWQGIITRLWPNTKYVDVIVTGTMSQYIPTLDYYSNGLPLVCTMYASSECYFGVNLKPLCKPSEVSYTLIPTMAYFEFLPVHRNTGVTNSINLPKALTEKEQQELVDLVDVKLGQEYELVVTTYAGLCRYRVGDLLRVTGFKNKAPQFSFICRKNVVLSIDSDKTDEVELQNAVKNAVTHLVPFDASLSEYTSYADTSSIPGHYVLFWELCLDGNTPIPPSVFEDCCLAVEESLNTVYRQGRVSDKSIGPLEIKIVEPNTFDKLMDYAISLGASINQYKTPRCVKFAPIIELLNSRVVDSYFSPKCPKWVPGHRQWGSN
B5: PtGH3-6: GH3 protein, accession EEE95183 (protein, listed as Populus trichocarpa)
chain: MPEAPKNTLKTSDYNLAEKNKISLQFIEDVTSNADEVQKKVLEEILSRNAHVEYLQRHGLNGQTNRETFKKAVPVITYEDIQPDINRIANGDTSQILCSKPISEFLTSSGTSGGERKLMPTIEEELGRRSLLYSLLMPVMTQFVPGLEKGKGMYFLFIKSEAKTPGGLVARPVLTSYYKSTHFKDRPYDPYTNYTSPNETILCPDSYQSMYSQMLCGLCQHKEVLRVGAVFASGFIRAIRFLEKHWKLLANDIRTGIIDPQITDPSVREAVMKILKSDPKLADFIEAECSKESWQGIITRLWPNTKYVDVIVTGTMSQYIPTLDYYSNGLPLVCTMYASSECYFGVNLNPICKPSEVSYTLIPTMAYFEFLPVHRNNGVINSVSMPKSLNEKEQQELVDLVDVKLDQEYELVVTTYAGLYRYRVGDVLRVVGFKNKAPRFSFICRKNVVLSIDSDKTDEVELQSAVKNAVNHLIPFDATLAEYTSYADTTTIPGHYVLFWELSLNGSTPIPPSVFEDCCLTIEESLNSVYRQGRASDKSIGPLEIKIVEPGTFDKLMDYAISLGASINQYKTPRCVKFAPIVELLNSRVVTCYFSPKCPKWAPGHKQWSKN
B6: RcGH3-3: GH3 protein, accession XP_002524947 (protein, listed as Ricinus communis)
chain: MAVDSGLSSPLGPPACEKDAKALQFIEEMTRNIDSVQEKVLAEILSRNAETEYLERFQLNGATDRDAFKSKVPVVTYEDLQPEIQRIANGDRSNIFSSHPISEFLTSSGTSAGERKLMPTIHEELDRRTLLYSLLMPVMNLYVPGLDKGKGLYFLFVKAETKTPGGLVARPVLTSYYKSEHFKNRPFDPYNVYTSPNETILCPDSFQSMYSQMLCGLIMREEVLRVGAVFASGLLRAIRFLQINCKHLAEDISTGTLNPKISDPSIRECMAKILKPNPELAEFITKECSEENWEGIITRIWPNTKYLDVIVTGAMAQYIPTLEYYSNGLPMACTMYASSECYFGVNLNPMVKPSDVSYTIMPNMAYFEFLPHESSSSALSRDSPPRLVDLADVEVGKEYELVITTYAGLNRYRVGDILRVTGFHNAAPQFRFIRRKNVLLSIDSDKTDESELQKAIENASLLLREFNTSVVEYTSYGDTKTIPGHYVIYWELLIKDPSNSPTEQVLNQCCLAMEESLNSVYRQGRVADSSIGPLEIRVVKNGTFEELMDYAISRGASINQYKVPRCVSFTPIMELLDSRVVSKHFSPSLPQWTPERRR
B7: RcGH3-6: GH3 protein, accession XP_002533739 (protein, listed as Ricinus communis)
chain: MPEAPKNSLISSDYNLSEKNRKTLQFIEDVTSNPDEVQKKVLEEILTRNARVEYLQKHGLNGYTDRESFKKIMPVIAYEDIQPHINRIANGDTSPILCSKPISEFLTSSGTSGGERKLMPTIEEELGRRSLLYSLLMPVMNQFVPGLEKGKGMYFLFIKSEAKTPGGLVARPVLTSYYKSSHFKDRPFDPYTNYTSPNETILCPDSYQSMYSQMLCGLCQRNDVLRVGAVFASGFIRAIRFLEKHWQLLCNDIRTGTVNPQITDLSVREAVMKILKPDPKLADFIAAECSQESWQGIITRLWPNTKYVDVIVTGTMSQYIPTLDYYSNGLPLVCTMYASSECYFGVNLNPLCKPSEVSYTLIPTMAYFEFLPVHRNNGVTNSISMPKSLNEKEQQELVDLVDVKLGQEYELVVTTYAGLYRYRVGDVLRVAGFKNKAPQFNFICRKNVVLSIDSDKTDEVELQNAVKNAVNHLVPFDATLAEYTSYADTTSIPGHYVLFWEITLNGSTPIPPSIFEDCCLTIEESLNSVYRQGRVSDKSIGPLEIKIVEPGTFDKLMDYAISLGASINQYKTPRCVKFAPIVELLNSRVVSSYFSPKCPKWVPGHKQWGNKN

Test: LC-MS assay of GH3 conjugation of IAA with Asp or Glu
Type: biochemical
Conditions: conjugation of IAA with Asp by recombinant GH3 protein; IAA-Asp product by LC-MS
Summary of the method: (§1)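 Kinetic parameters come from Michaelis-Menten fits of initial velocities. Velocities reflect LC-MS quantification, against standards, of Asp or Glu conjugates formed by purified GH3 (44 to 164 μg/mL) with 5 mM ATP and MgCl2 at pH 8.0, 30° C.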

Molecule | kcat (hrs−1) IAA-Asp [h⁻¹]
B1 | 964.027
B2 | 1011.181
B3 | 941.117
B4 | 610.082
B5 | 888.111
B6 | 887.172
B7 | 1037.037

Same assay, conditions: conjugation of IAA with Glu by recombinant GH3 protein; IAA-Glu product by LC-MS

Molecule | kcat (hrs−1) IAA-Glu [h⁻¹]
B1 | 45.433
B2 | 45.833
B3 | 160.490
B4 | 67.109
B5 | 181.954
B6 | 36.015
B7 | 183.972

Test: LC-MS assay of GH3 conjugation of 2,4-D with Asp or Glu
Type: biochemical
Conditions: conjugation of 2,4-D with Asp by recombinant GH3 protein; 2,4-D-Asp product by LC-MS; 5 mM 2,4-D substrate
Summary of the method: as §1

Molecule | kcat (hrs−1) 2,4-D-Asp [h⁻¹]
B1 | 2.529
B2 | 5.691
B3 | 3.142
B4 | 4.232
B5 | 5.415
B6 | 3.813
B7 | 4.189

Same assay, conditions: conjugation of 2,4-D with Glu by recombinant GH3 protein; 2,4-D-Glu product by LC-MS; 5 mM 2,4-D substrate

Molecule | kcat (hrs−1) 2,4-D-Glu [h⁻¹]
B1 | 0.635
B2 | 1.113
B3 | 1.214
B4 | 1.750
B5 | 2.816
B6 | 1.854
B7 | 2.525
